According to paper PMC2921665:
Positions count from the first letter of the chain named. Like-named read-outs stand apart in the source and are kept apart here.

Legend:
[1] = target: T1, LexA (EMSA protein) (Escherichia coli, UniProt P0A7C2 1-202, K156A); assay: EMSA
[2] = target: T1, LexA (EMSA protein); assay: EMSA; remark: listed apart in the source

B1: +1 spacer (dsDNA)
DNA 1: GATGCCTGCGGATACTGTATATATAATACAGTATCAATTCTGGCT
DNA 2: AGCCAGAATTGATACTGTATTATATATACAGTATCCGCAGGCATC
Question: For B1, which Kd [1] is on record?
Answer: ~200 nM

B2: RecA SOS box (dsDNA)
DNA 1: GATGCCTGCGGATACTGTATGATCATACAGTATCAATTCTGGCT
DNA 2: AGCCAGAATTGATACTGTATGATCATACAGTATCCGCAGGCATC
Question: How did the Kd [2] turn out when B2 was run?
Answer: 1.67 ± 0.26 nM

B3: TGC spacer (dsDNA)
DNA 1: B2 DNA 1 with T20C, A22C, T23G, A25G
DNA 2: B2 DNA 2 with T20C, A22C, T23G, A25G
Question: Which Kd [2] does the source give for B3 here?
Answer: 2.4 ± 0.5 nM

B4: A-tract spacer (dsDNA)
DNA 1: B2 DNA 1 with T20A, G21A, T23A, C24A, T26A
DNA 2: B2 DNA 2 with A19T, G21T, A22T, C24T, A25T
Question: Which Kd [2] does the source give for B4 here?
Answer: 5.64 ± 0.78 nM

B5: AT-GC spacer (dsDNA)
DNA 1: B2 DNA 1 with A22C, T23G
DNA 2: B2 DNA 2 with A22C, T23G
Question: Which Kd [2] does the source give for B5 here?
Answer: 1.59 ± 0.3 nM

B6: AT-repeat spacer (dsDNA)
DNA 1: B2 DNA 1 with G21A, A22T, T23A, C24T
DNA 2: B2 DNA 2 with G21A, A22T, T23A, C24T
Question: B6 was tested. Which Kd [2] did it give?
Answer: 0.8 ± 0.27 nM

B7: GC-repeat spacer (dsDNA)
DNA 1: GATGCCTGCGGATACTGTGCGCGCGCACAGTATCAATTCTGGCT
DNA 2: AGCCAGAATTGATACTGTGCGCGCGCACAGTATCCGCAGGCATC
Question: B7 was tested. Which Kd [1] did it give?
Answer: ~100 nM

B8: -1 spacer (dsDNA)
DNA 1: GATGCCTGCGGATACTGTATATATTACAGTATCAATTCTGGCT
DNA 2: AGCCAGAATTGATACTGTAATATATACAGTATCCGCAGGCATC
Question: B8 was tested. Which Kd [1] did it give?
Answer: ~250 nM
